Data: publication PMC3173608, “Atomic Resolution Insights into Curli Fiber Biogenesis” (Structure(London, England:1993), 2011)
Where “and” joins values, the source holds several entries; their conditions need not be identical. Equal entries are not always repeated.

Molecular target: the molecule itself
Test: SEC + native gel or EMSA

B1: CsgG-6xHis (natural protein)
chain: CLTAPPKEAARPTLMPRAQSYKDLTHLPAPTGKIFVSVYNIQDETGQFKPYPASNFSTAVPQSATAMLVTALKDSRWFIPLERQGLQNLLNERKIIRAAQENGTVAINNRIPLQSLTAANIMVEGSIIGYESNVKSGGVGARYFGIGADTQYQLDQIAVNLRVVNVSTGEILSSVNTSKTILSYEVQAGVFRFIDYQRLLEGEVGYTSNEPVMLCLMSAIETGVIFLINDGIDRGLWDLQNKAERQNDILVKYRHMSVPPES
modifications: C16 becomes the lipidated N terminus of the mature protein (said of CsgG in general)
notes: also called recombinant CsgG-6xHis; protein-detergent complex; not shown: His6, C-terminal, kept
stoichiometry N: 7 protomers and 9 protomers
